Experiment [1] addresses T1, mouse B7-H4-Fc (mouse; human).
T1 construct: also called mB7-H4-Fc; mB7-H4-hFc
Description: SPR (Biacore). Background: SPR reads the build-up and loss of mass on a sensor chip optically.

In experiment [2] the target is T2, IgC domain of human B7-H4-Fc (human).
T2 construct: also called hB7-H4 IgC domain
In words: ELISA, coated hB7-H4 IgC domain. Here is the method:
(§1) About 1-2 μg/ml of human or mouse B7-H4-Fc (or his-tagged) was immobilized on ELISA plates (Immuno 2HB, Thermo scientific, cat #3455) at 4° C. overnight. After blocking the plates with 3% PBS+milk, serial diluted antibodies were added to the blocked plates and incubated at RT for 1-1.5 h. After washing the plates with PBS-T (0.05%), horse radish peroxidase (HRP)-conjugated antibody targeting the hFab was added to the plate. Signals were developed by adding 3,3′,5,5′-Tetramethylbenzidine (TMB (followed 1N of H₂SO₄ to stop the reaction. The OD at 450 nm was read by ELISA plate reader (Infinite M1000 from TECAN). GraphPad from Prism was used to plot OD450 vs. antibody concentration curve and to calculate the EC50 values.
Background: An ELISA detects its analyte on a solid surface through an enzyme-linked reagent.

The target of experiment [3] is T3, hB7-H4 (soluble human B7-H4, construct not named) (human, UniProt Q7Z7D3 25-259, limits assumed).
T3 construct: also called soluble hB7-H4
T3 sequence: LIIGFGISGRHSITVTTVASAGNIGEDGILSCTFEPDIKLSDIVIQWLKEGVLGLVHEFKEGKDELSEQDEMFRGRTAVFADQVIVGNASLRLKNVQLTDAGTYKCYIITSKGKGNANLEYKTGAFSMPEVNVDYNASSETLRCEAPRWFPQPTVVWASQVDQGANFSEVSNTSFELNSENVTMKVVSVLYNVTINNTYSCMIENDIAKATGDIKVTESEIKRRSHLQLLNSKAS
In words: ELISA, hB7-H4. A digest of the protocol: (§2)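 EC50 values come from fitted OD450-versus-antibody-concentration curves. Antibody dilution series bound for 1-1.5 h at RT to plates coated overnight at 4° C with about 1-2 μg/ml human or mouse B7-H4-Fc or His-tagged protein, milk-blocked. Detection used HRP-conjugated anti-hFab with TMB substrate and an acid stop.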

The target in experiment [4] is T4, mouse B7-H4 expressed on cells (mouse, UniProt Q7TSP5 25-257).
T4 construct: also called cellular mB7-H4; mB7-H4/CT26
T4 sequence: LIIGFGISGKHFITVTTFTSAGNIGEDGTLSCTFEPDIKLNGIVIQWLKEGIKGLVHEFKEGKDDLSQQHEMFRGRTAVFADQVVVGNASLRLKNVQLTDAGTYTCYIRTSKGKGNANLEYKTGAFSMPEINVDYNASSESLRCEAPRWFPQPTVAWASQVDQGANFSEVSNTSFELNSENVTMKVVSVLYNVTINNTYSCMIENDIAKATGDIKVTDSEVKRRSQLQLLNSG
Description: flow cytometry, mB7-H4/CT26 cells. As for the experimental part: Cells were harvested, washed once, and then re-suspended to the concentration of 1×10⁶ cells/ml in ice cold FACS Buffer. 25 μl of cell suspension was added to each well of a 96-well round-bottom microliter plate. Serially diluted antibodies or fusion proteins were added to each well and incubated for 1 hour at 4° C. Cells were washed three times by centrifugation at 1500 rpm for 5 minutes, and then stained with secondary antibody (1:200 dilution) for 30 min at 4° C. in the dark. Cells were washed once, re-suspended in 100 μl PBS buffer and then analyzed using Guava Flow Cytometry EasyCyte system.

Experiment [5] has as its target T5, IgV domain of human B7-H4-Fc (human).
T5 construct: also called hB7-H4 IgV domain
Description: ELISA, coated hB7-H4 IgV domain.

Experiment [6] has as its target T6, IgV domain of mouse B7-H4-Fc (mouse; human).
T6 construct: also called mB7-H4 IgV domain
Description: ELISA, coated mB7-H4 IgV domain.

Experiment [7] concerns the target T3, hB7-H4 (soluble human B7-H4, construct …). Description: SPR (Biacore). The method, boiled down: (§3)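 Kinetic constants came from a 1:1 Langmuir fit of binding at 25 °C in HBS-EP, pH 7.4. Analyte (100 nM to 0.1 nM) flowed for 180 s, then dissociated for 1000 or 1200 s, over amine-coupled human B7-H4-Fc, human B7-H4-his or mouse B7-H4-Fc surfaces at 50-100 RU.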

The target of experiment [8] is T7, mB7-H4 (soluble mouse B7-H4, construct not named) (mouse, UniProt Q7TSP5 25-257, limits assumed).
T7 sequence: T4 sequence
In words: SPR (Biacore). A digest of the protocol:
as §3

Experiment [9] concerns the target T8, IgC domain of mouse B7-H4-Fc (mouse; human).
T8 construct: also called mB7-H4 IgC domain
Description: ELISA, coated mB7-H4 IgC domain. As for the experimental part: as §1

The target of experiment [10] is T9, human B7-H4 expressed on cells (human, UniProt Q7Z7D3 25-282).
T9 construct: Transfected CHO cells or tumor cell lines that carry hB7-H4; also called cellular hB7-H4
T9 sequence: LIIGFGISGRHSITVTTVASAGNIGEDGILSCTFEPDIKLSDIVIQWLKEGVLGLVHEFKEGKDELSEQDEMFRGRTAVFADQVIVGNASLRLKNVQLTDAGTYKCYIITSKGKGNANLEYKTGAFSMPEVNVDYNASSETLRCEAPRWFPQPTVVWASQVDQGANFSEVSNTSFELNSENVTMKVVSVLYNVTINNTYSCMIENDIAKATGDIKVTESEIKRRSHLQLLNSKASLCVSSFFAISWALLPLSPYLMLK
In words: flow cytometry, SK-BR-3 cells. A digest of the protocol: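 Antibody or fusion protein dilution series applied to 1×10⁶ cells/ml in ice-cold FACS buffer, 1 h at 4 °C; cells washed thrice, labelled 30 min at 4 °C in darkness with 1:200 secondary antibody, washed, resuspended in PBS and analysed by flow cytometry.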
On the technique in general: A flow cytometer gives signals particle by particle.

Experiment [11] deals with T10, human B7-H4-Fc (human).
T10 construct: also called hB7-H4-Fc; hB7-H4 Fc
In words: SPR (Biacore).

Experiment [12] addresses T7, mB7-H4 (soluble mouse B7-H4, construct …). In words: ELISA, mB7-H4. As for the experimental part: as §1
The target in experiment [13] is T5, IgV domain of human B7-H4-Fc. In words: ELISA, coated hB7-H4 IgV domain. Here is the method: as §1
The source holds these as a separate data set.

For experiment [14], the target named is T10, human B7-H4-Fc. Description: ELISA, coated hB7-H4-Fc. Here is the method:
as §1

The target of experiment [15] is T6, IgV domain of mouse B7-H4-Fc. Description: ELISA, coated mB7-H4 IgV domain. The method, boiled down:
as §2
This is another data set of the same source.

For experiment [16], the target named is T1, mouse B7-H4-Fc. Description: ELISA, coated mB7-H4-Fc. The method, boiled down: as §2
Experiment [17] concerns the target T4, mouse B7-H4 expressed on cells. Description: flow cytometry, CHO cells expressing mB7-H4.
The target in experiment [18] is T7, mB7-H4 (soluble mouse B7-H4, construct …). Description: summary of ELISA and flow cytometry.
A further experiment concerns the target T11, mouse B7-H4-his (mouse, UniProt Q7TSP5 25-257).
T11 construct: also called mB7-H4-his; mB7-H4-His; not shown: his tag
T11 sequence: T4 sequence
Description: SPR (Biacore).

In the next experiment the target is T12, human B7-H4-his (human, UniProt Q7Z7D3 25-259).
T12 construct: also called hB7-H4-his; hB7-H4 his; not shown: his tag
T12 sequence: T3 sequence
Description: SPR (Biacore).

In general, Kd refers to a measure of binding affinity in units of concentration. Broadly, the EC50 is the concentration that produces a half-maximal response. For orientation: EC50 (read off the curve) means the concentration at which the effect is half-maximal. Read a low EC50 (read off the curve) as greater potency.

T10 sequence (chain, as listed by the source): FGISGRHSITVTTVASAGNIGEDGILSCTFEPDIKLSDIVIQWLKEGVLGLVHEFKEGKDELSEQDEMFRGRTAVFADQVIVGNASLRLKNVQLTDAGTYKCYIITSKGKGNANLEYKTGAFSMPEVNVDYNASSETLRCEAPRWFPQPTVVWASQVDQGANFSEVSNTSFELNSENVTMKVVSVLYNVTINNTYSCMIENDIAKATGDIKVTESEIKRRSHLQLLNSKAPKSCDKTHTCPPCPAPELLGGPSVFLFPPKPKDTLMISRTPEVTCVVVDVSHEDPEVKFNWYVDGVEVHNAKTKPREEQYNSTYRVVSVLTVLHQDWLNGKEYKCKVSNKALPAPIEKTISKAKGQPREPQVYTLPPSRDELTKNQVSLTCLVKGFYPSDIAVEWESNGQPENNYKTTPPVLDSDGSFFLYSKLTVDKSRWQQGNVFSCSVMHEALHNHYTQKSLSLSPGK
T6 sequence (chain, as listed by the source): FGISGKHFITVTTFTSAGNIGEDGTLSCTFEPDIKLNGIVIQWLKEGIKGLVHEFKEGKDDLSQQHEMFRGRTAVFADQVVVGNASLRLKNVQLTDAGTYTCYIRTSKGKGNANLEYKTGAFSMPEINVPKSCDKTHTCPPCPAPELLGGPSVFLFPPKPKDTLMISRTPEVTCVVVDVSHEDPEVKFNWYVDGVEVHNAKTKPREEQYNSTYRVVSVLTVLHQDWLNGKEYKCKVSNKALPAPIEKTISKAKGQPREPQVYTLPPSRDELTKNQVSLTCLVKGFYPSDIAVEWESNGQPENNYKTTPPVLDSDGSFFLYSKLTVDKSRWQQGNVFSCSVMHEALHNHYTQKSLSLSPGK
T1 sequence (chain, as listed by the source): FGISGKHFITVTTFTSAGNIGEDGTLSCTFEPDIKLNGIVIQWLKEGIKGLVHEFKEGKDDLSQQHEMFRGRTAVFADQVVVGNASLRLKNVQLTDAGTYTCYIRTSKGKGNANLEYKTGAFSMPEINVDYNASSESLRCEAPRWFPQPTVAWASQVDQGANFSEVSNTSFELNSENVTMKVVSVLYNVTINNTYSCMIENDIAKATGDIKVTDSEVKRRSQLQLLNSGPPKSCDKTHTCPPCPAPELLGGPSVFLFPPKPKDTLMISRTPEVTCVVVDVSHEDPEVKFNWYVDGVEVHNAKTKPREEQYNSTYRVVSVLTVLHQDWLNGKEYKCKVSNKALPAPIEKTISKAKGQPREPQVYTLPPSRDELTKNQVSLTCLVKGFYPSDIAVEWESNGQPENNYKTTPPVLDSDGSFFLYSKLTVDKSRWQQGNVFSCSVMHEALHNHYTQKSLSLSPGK
T5 sequence (chain, as listed by the source): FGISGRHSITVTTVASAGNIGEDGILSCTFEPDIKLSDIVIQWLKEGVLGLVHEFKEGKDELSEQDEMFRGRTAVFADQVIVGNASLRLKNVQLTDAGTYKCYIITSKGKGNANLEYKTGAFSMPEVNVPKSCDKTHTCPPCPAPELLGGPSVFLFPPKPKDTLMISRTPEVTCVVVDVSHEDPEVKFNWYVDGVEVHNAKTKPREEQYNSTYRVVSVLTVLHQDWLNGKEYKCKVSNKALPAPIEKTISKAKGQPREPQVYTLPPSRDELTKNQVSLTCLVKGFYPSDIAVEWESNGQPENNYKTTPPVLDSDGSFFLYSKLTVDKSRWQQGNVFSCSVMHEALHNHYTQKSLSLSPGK
T2 sequence (chain, as listed by the source): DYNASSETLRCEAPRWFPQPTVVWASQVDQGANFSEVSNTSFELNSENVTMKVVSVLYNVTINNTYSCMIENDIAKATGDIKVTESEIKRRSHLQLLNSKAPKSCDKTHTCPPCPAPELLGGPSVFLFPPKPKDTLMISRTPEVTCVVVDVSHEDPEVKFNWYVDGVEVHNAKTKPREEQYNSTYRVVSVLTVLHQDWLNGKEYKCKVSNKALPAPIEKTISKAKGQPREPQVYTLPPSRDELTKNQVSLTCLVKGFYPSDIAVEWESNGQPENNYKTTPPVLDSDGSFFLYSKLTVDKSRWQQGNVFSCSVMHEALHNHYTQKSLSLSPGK
T8 sequence (chain, as listed by the source): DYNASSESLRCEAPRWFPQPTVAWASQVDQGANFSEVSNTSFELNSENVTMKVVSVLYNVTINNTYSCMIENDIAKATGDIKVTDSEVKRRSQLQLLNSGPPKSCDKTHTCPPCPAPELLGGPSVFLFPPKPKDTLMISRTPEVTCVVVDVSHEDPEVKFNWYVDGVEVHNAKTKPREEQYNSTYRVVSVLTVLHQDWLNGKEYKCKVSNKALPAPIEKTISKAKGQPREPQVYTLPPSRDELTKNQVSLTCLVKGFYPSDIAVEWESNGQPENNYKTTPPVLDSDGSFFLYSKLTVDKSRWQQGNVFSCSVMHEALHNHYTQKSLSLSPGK

B1: 39A11/39A11 (antibody, human IgG1, V domains shown)
VH: EVQLLESGGGLVQPGGSLRLSCAASGFTFSSYGMHWVRQAPGKGLEWVASISSSSGYIYYADSVKGRFTISRDNSKNTLYLQMNSLRAEDTAVYYCARASSGMDVWGQGTTVTVSS
VL: DIQMTQSPSSLSASVGDRVTITCRASQTIRSYLNWYQQKPGKAPKLLIYAASHLQSGVPSRFSGSGSGTDFTLTISSLQPEDFATYYCQQSYTTPYTFGQGTKLEIK
For the molecule B1, the dissociation constant Kd with mouse B7-H4-Fc [1] stood at 1.53 nM; in [7], 1.05 nM; in [8], 13 nM; with human B7-H4-Fc [11] it was 0.926 nM. For the same molecule, the binding result in [2] and in [9] was “no binding (tested: axis value -8 (labelled log nM))” in each case. The EC50 was determined as 0.08 nM in [3], 6.73 nM in experiment [4], 4.17 nM in experiment [10] and 0.136 nM in experiment [12]. The entries for the concentration giving a half-maximal response (EC50 (read off the curve)) in experiment [5] and in [6] were about 0.3 nM and about 0.2 nM, respectively.

B2: 4B9/4B9 (antibody, human IgG1, V domains shown)
VH: QVQLVQSGAEVKKPGASVKVSCKASGYTFTSYYMHWVRQAPGQGLEWMGWMNPNSGNTGYAQKFQGRVTMTRDTSTSTVYMELSSLRSEDTAVYYCARGQGRYLNYYYMDVWGKGTTVTVSS
VL: DIQMTQSPSSLSASVGDRVTITCRVSQGISNYLAWYQQKPGKAPKLLIYDASSLQSGVPSRFSGSGSGTDFTLTISSLQPEDFATYYCQQSYSTPFTFGPGTKVDIK
On to B2, for which the binding result is listed as “no binding (tested: 20 nM)” in [13]; “no binding (tested: 20 nM)” in [15]; “no binding (tested: 20 nM)” with mouse B7-H4-Fc [16]; “no binding” in [17]; “no binding” in [18]; “no binding” in the experiment with mouse B7-H4-his. Further, the 50% effective concentration (EC50 (read off the curve)) with human B7-H4-Fc [14] is about 0.07 nM. Also, the dissociation constant Kd in the experiment with human B7-H4-Fc [11] stood at 2.89 nM; with human B7-H4-his, 4.13 nM.
